# Results taken from the domain aggregation screens of Martell et al. (2025).
# Test: soluble fraction after stress (log2 fold change); higher = more stays soluble; pooled small domains, quantitative proteomics
# Settings: stress: 50 degC
# In short: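 Pooled custom libraries of small protein domains were measured in a high-throughput format, with quantitative proteomics as the read-out. Each library was stressed at 50°C. Aggregation propensity is given as the base-two logarithm of the fold change in how much of each protein stays soluble after the stress. Higher values mean a larger share of the protein remains in solution.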
row,Sequence,soluble fraction (log2)
1,HMQLGQMIVKLRKEQGLTQETFAKKFNVTRQTVSNWENEKSYPDLHTLVKISDEFHLSLDILLK,-2.8
2,HMRASQGRNELILSLLRGHELSILELLEGLEKQGVRVARPTLTKDLNELVSRGSVEATAPPRSKNRTYRIP,-0.612
3,HMNSEPKTKLQEIAQERGLAAPVYETTHTGPDHDRIFSASVTVGDVVAAGEARSRKGAESEAAIAAIKALG,0.212
4,HMREGNELLGKEGVTVSELRPAGIALIDGRRTDVVTDGEFVAVDQAVEVVEVSGNRVVVRRS,0.0948
5,HMSRLGINTTIEDIKMVGKIIMPLLKQGQSVYQILASHPEIPYSEKTLYSYIEDNIFKDAGIDISVFDL,-0.931
6,HMGSTYGISRVDNETSRTHGWLVTIQRRGVIYRKHFSDGVFGGKQRSFAAAKEYRDEVIAAHP,-0.672
7,HMIGILSDREAEILALLDEGLTNKAIGRRLNLAEPTVKFHLKNLYAKLGVGRRQLAVNVAKGSGLLNSD,-0.699
8,HMRGPTIELLIQKSALYEELDDSENALKEILKAFDRDSLNSDVLNRLVNLLLNDKQIDRAENYNQLLIEK,-0.32
9,HMGEDLTIDQLAAEVDMTVRNIRAHQARGLLPPPTIKGRIGYYGPLHRRRLQQIRAMQEEGLNLAAIAKVV,-0.609
10,HMQVEEKNKKIELYIEGKIKELESNLMYVPNENKKKLLMAFMNRNEDIEIIKTKIDTIFNKSVAAYKENM,0.237
11,HMAEVTLTVREQEVLHLLARGMSNGEMAAHLYVEPTTIKYHLTGLLQKTGSRDRLQAVLWGIRAGMVH,-2.18
12,HMREYVGLSPFNKEKTPSFYVNDEKGQFFDFSSGKNGDLITFLQETERLTFMEAVERLAAEAGLPMPA,-0.491
13,HMENTVVMPNLLGKTMTEAKIELKDLSISITLKGSENSSQYAAGQIISQSVDSGTRVAVGSSVEVTIAGS,0.0377
14,HMNRNHVFDSNGPDLRLRGTAQQLFEKYLQLGRDATSGGDRVMAEGYFQHAEHYFRILNAMNQAAMQH,-0.68
15,HMGATYSQFLDQVDGGNVQKVTFSGDMRSGTNQISYTTRSGQSATITAPMDRDLINILRAKNVEIVQEEP,0.026
16,HMTGSTSVAQVSTPSGSLNLRAYASTSARVLLQIPEYAFVTVYNRGATWSYVSYNGVSGYVMSVYLSFGG,-1.01
17,HMLSSEQQQKLDSLSRKELEVAELVSHGATNKMIARTMNITERTVKAHLTAIFQKMNIPDRLSLAIFFRDL,-2.44
18,HMQSYSYYDFQKALQNKTVESVIIEPDKTVPTGTLQIQLKGDTKEELNVSDVTEVEELLQSYDVDYKLRSV,0.131
19,HMLIADSDALRSQIESILNGNPNEVASFRAGKESLMGWFVGQVMRSTGGKADPKRTRELLQELLTK,-0.102

row,Sequence,soluble fraction (log2)
1,HMSIELEISADGNNYRVSGLSDGEDVRVYSVSGVQVFSGKAQGGEVVIPADNWNKGIYVISAGGSSVKVL,-0.196
2,HMLRRNQVQSQVIPRENGSYVVELQLRDDVDSILRLELTAATEAMARDLADRFRQDPEGVYTRLLSALY,-0.789
3,HMKMSVKNEIISLLEKNRDTSISGQVIADSLNVTRAAVWKAIKVLKEEGYNIDGTPNKGYILLGNN,-0.368
4,HMGRYATVPDVVGSTPEVARELIRSEGLRYVLSEETVYSDSDTGTVGRTDPESGTRMSADDEVVVYLS,0.0355
5,HMQTKEVDYGTFMSMIDEKNIGTVEIGDSQIVFTDKDNKNLYETGVMNDPDLAQRLHDAGATFSS,0.201
6,HMYRLSPSWRIVERDDGFEIYGGDDARFQLDPSPLVSRLAAGDAVTRDGLDPTGAIEFEQLLSAGMIRPEI,-0.124
7,HMNTTLQLDTILRLEKNAHLLENFVRAGFTDSELGKLTDADLLQIGVPKIGDRRRLLAALAERAH,-0.589
8,HMVSLTGEWRPSKDALDILITKGGINPNFIDDAVPEFILYWRDRGDVSNTWDSKFIQHVRRQWQFYTGI,-2.93
9,HMRNMRKLWIARINAAARMNDISYSKLMHGLKLANVEINRKMLSEMAIDDPKSFTALVETAKKALNG,-0.894
10,HMDPTLFRLNILEGLGLEKKNLTSEEQEQLRFLYEHFSMKEILMTIDYIKKLNLEKSIVNLYRLMQHP,-0.0621
11,HMAHRYQQIADDLGRRVEAGEFAAGRLLPSEATLSGQYKASRVTVRKALEALRTDGLVESRQGFGWFVAAD,-0.379
12,HMGGLAVQLVHAMTDQIRSGRLKAGDKLPTEAAIMKDFGVSRTVVREAISRLQASGWVDTRHGIGTFVLHQ,-1.3
13,HMTPDVHRGDTITVSLRAGAIRVRVPAKALEEGAAGGEIRVVNLTGGREYRVRVTGPGTAEAIL,0.0275
14,HMRVVGRNHYDDADLAHIRSVIQLEARPLNVSRIARTLANEYPKHTYWSYLSFLQKNLRDRPDLF,-1.83
15,HMFNFPEEVRVQLAKSEQLRNLLIPMSETVRDALSGEELWFGRTIFNTTSKKIESWTNPGVWVE,-1.45
16,HMDDSVTFSEFVRMVDSGQVESVRITGNEVTGSDSTGNTFRTFVPPQYEGLVNRLVERDVAVTAEE,0.0594
17,HMEGNAFASTGDPEADILDITAVHPMRRDAVEELLARSGAEWSLVEGMLRDGKITMAPWEGEEFFIRS,0.0467
18,HMFAAIFADDSGFTTRSKRFGPYVEEIAADWQAVKQLSDEDAKQALVPLVKKIELALSTLQQFVSSV,-0.244
